Experiment [1] addresses phosphorylated p58.2.1 peptide (N-terminal KIR ITIM) (human). Description: SPR (BIAcore), phosphopeptide on streptavidin chip, GST fusion injected. A general note: In SPR one partner is held on a chip, and binding of the other changes the refractive index at the surface.
Experiment [2] deals with phosphorylated p58.2.2 peptide (C-terminal KIR ITIM) (human). The description is as above.
The target of a further experiment is T1, GST-SHP-1.SH2(N + C) (Mus musculus, UniProt P29351).
T1 construct: Using recombinant soluble tandem SH2 domains of SHP-1 and SHP-2; made in house; host or cells: E. coli DH5α
T1 sequence (P29351 1-213 limits assumed): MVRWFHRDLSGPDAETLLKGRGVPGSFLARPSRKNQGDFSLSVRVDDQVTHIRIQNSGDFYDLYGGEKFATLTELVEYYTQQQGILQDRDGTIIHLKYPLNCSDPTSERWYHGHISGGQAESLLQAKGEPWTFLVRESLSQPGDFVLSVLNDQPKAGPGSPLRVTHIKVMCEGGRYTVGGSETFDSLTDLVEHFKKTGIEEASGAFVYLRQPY
Kind of experiment: Surface plasmon resonance (BIAcore), SHP-1 tandem SH2 domains. The format is binding, murine. The note with it: for koff / kon: 25 RU phosphorylated peptide immobilized, 5 μl/min. The procedure: (§1) Surface plasmon resonance measurements were performed on a BIAcore apparatus (BIAcore). The GST-SHP1.SH2(NC), GST-SHP2.SH2(NC) and GST-SHIP.SH2 fusion proteins generated from the murine phosphatase cDNAs, were purified from DH5α lysates as previously described. Before their use in BIAcore experiments, fusion proteins were dialyzed in HBS buffer pH 7.4 (10 mM HEPES, 150 mM NaCl, 3.4 mM EDTA). Protein purity was assessed by 12.5% SDS-PAGE, and Coomassie blue staining. The running buffer used in all BIAcore experiments consisted of HBS buffer supplemented with 0.05% surfactant P20. Equilibrium constant determination (koff and kon) was performed using BIAevaluation 2.0 software. The equilibrium dissociation constants KD were calculated from the koff/kon ratio.
(§2) Results are illustrated by FIG. 16 showing the BIAcore analysis of NKG2A ITIM interaction with the SH2 domains of SHP-1, SHP-2 and SHIP phosphatases. In FIG. 16, the binding of 100 nM soluble recombinant GST-SHP-1.SH2(N+C), GST-SHP-2.SH2(N+C) or GST-SHIP.SH2 to immobilized NKG2A/B phosphorylated ITIM peptides (25 RU) was monitored by real-time analysis using surface plasmon resonance. Results are expressed as corrected resonance units (CRU) corresponding to the raw RU values after subtraction of background RU value due to the injection medium.
(§3) The measurement of phosphorylated peptide binding to GST-SHP-1.SH2(N+C) and GST-SHP-2.SH2(N+C) fusion proteins was performed at a constant 5 μl/min flow rate. In this representative experiment, 25 RU of phosphorylated NKG2A N-term and NKG2A C-term peptides were immobilized on streptavidin microchips. The regeneration was performed using HBS buffer supplemented with 0.03% SDS. Results are expressed as corrected resonance units (CRU) corresponding to the raw RU values after subtraction of background RU value due to the injection medium, koff and kon were calculated from three independent measurements using the BIAevaluation 2.0 software. In addition, kon was calculated as the slope of the curve kg=kon×c−koff, where koff is the off-rate constant and c is the concentration of the soluble recombinant GST fusion proteins. By plotting kg as a function of c, a linear regression fit was obtained (r^2>0.98) for the binding of NKG2A ITIM N- and C-term to SHP-1 and SHP-2 tandem SH2 domains. This linear representation allows to check on the validity of the single step interaction and to confirm the determination of the kon constant using non-linear analysis (BIAevaluation software).

A further experiment addresses T2, GST-SHP-2.SH2(N + C) (Mus musculus, UniProt P35235).
T2 construct: Using recombinant soluble tandem SH2 domains of SHP-1 and SHP-2; made in house; host or cells: E. coli DH5α
T2 sequence (P35235 1-216 limits assumed): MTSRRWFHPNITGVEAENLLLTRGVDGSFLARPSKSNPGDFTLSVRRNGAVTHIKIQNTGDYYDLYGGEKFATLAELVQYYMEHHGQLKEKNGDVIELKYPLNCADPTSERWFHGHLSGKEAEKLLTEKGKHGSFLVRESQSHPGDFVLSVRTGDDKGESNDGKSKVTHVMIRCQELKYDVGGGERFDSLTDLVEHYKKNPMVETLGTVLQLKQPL
Kind of experiment: Surface plasmon resonance (BIAcore), SHP-2 tandem SH2 domains. The format is binding, murine. The note with it: for koff / kon: 25 RU phosphorylated peptide immobilized, 5 μl/min. The procedure: as §1, §2, §3

Experiment [3] has as its target human p58.2 KIR (CD158b), HLA-Cw3-specific killer-cell inhibitory receptor (human) (UniProt P43628). Description: cell-based or functional assay.
In experiment [4] the target is T3, SHIP polyinositol phosphatase from RBL-2H3 cell lysates (rat (cell line RBL-2H3), UniProt P97573 1-1190, limits assumed).
T3 construct: Detected by immunoblot with anti-SHIP antiserum
T3 sequence (looked up): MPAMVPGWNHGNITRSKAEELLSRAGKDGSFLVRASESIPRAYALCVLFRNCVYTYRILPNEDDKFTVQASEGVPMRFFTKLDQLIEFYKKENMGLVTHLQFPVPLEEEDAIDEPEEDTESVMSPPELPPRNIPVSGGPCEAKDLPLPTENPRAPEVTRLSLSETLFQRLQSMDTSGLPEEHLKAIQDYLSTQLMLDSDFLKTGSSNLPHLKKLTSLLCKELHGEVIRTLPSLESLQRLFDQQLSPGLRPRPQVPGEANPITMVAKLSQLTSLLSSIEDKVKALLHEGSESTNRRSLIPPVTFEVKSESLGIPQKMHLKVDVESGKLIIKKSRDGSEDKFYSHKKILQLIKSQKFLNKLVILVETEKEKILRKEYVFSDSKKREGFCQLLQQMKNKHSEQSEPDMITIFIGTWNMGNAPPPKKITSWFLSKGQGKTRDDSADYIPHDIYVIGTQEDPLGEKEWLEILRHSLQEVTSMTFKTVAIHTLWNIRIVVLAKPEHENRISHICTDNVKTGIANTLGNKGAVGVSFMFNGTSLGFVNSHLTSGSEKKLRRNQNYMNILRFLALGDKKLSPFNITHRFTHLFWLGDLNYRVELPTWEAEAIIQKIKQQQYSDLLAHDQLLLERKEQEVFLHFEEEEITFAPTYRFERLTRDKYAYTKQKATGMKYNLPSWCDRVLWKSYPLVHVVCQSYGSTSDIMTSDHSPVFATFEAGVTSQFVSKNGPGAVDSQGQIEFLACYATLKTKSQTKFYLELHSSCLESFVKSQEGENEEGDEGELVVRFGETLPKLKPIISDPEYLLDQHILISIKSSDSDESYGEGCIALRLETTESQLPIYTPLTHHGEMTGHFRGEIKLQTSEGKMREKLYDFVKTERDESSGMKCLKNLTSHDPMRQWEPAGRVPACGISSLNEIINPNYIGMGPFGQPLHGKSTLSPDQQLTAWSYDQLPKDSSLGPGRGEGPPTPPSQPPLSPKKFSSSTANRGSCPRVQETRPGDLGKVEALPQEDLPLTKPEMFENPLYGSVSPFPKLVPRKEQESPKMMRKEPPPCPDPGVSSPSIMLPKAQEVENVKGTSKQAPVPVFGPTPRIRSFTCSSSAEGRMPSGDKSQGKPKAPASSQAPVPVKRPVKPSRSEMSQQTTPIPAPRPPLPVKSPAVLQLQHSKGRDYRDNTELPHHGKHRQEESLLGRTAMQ
Kind of experiment: cell lysate adsorption to peptide beads, immunoblot (RBL-2H3), FIG. 15A. The procedure: In an attempt to characterize the function of these putative ITIMs, cell lysates were incubated with phosphorylated and nonphosphorylated synthetic peptides corresponding to the N-terminal and the C-terminal I/VxYxxL stretches present in NKG2A intracytoplasmic domain. Cell lysates absorbed to peptides were then assayed by immunoblotting for the presence of the phosphatases known to interact with phosphorylated ITIMs, i.e. the protein tyrosine phosphatases SHP-1 and SHP-2, as well as the polyinositol phosphate phosphatase, SHIP. In parallel, lysates adsorption were performed using control peptides corresponding to ITIMs present in Ig-like ITIM bearing receptors such as human KIRs (p58.2/CD158b, a receptor for HLA-Cw3) and mouse FcγRIIB, as well as in mouse lectin-like ITIM-bearing receptor, such as Ly-49A.
As shown in FIG. 15A (lanes 1 and 2), both N- and C-terminal I/VxYxxL stretches present in NKG2A associate with SHP-1 and SHP-2 in vitro, but no binding to SHIP was detected. Similar patterns of association were obtained using the phosphorylated ITIM peptides of […] and p58.2 KIR (FIG. 15A, lanes 3 to 5). In contrast, FcγRIIB phosphorylated ITIM peptides also associate with SHIP (FIG. 15A, lane 6). No association of phosphatases with nonphosphorylated peptides corresponding to FcγRIIB (FIG. 15A, lane 7) and NKG2A N- and C-terminal I/VxYxxL stretches was detected. When nonphosphorylated and phosphorylated peptides were used to adsorb lysates prepared from ³⁵S methionine/cysteine-labeled cells, only two bands around 64 and 68 kDa selectively associate with both phosphorylated NKG2A N- and C-terminal I/VxYxxL stretches, as compared to nonphosphorylated ones (FIG. 15B). The 64 and 68 kDa proteins which bind to phosphorylated NKG2A peptides correspond to SHP-1 and SHP-2 apparent molecular weight respectively, supporting the immunoblotting results. Therefore, our results define the two NKG2A I/VxYxxL stretches as ITIMs which appear to function similarly to other ITIMs present in inhibitory receptors for MHC class I molecules, i.e. KIRs and Ly-49 molecules. Using recombinant soluble tandem SH2 domains of SHP-1 and SHP-2, we confirmed by surface plasmon resonance that both NKG2A ITIM phosphopeptides directly associate with the SH2 domains of SHP-1 and SHP-2, but not with the SH2 domain of SHIP (FIG. 16).
In general terms: A western blot detects proteins with antibodies after separation by electrophoresis.

Where [5] appears, read: calculated from the koff/kon ratio.

Where a SMILES comes first, the peptide text is derived from it. Where no end group is shown, it is not given here. [ ]: non-standard residue; d: D form. The star is where a group is joined. Biotin = O=C1N[C@H]2[C@H](CS[C@H]2CCCCC(=O)*)N1; pY = N[C@@H](Cc1ccc(OP(=O)(O)O)cc1)C(=O)O

Sequence of phosphorylated p58.2.2 peptide (C-terminal KIR ITIM) (human) (peptide, as listed by the source): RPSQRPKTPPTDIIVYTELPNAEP
Sequence of human p58.2 KIR (CD158b), HLA-Cw3-specific killer-cell inhibitory receptor (human) (P43628 22-341): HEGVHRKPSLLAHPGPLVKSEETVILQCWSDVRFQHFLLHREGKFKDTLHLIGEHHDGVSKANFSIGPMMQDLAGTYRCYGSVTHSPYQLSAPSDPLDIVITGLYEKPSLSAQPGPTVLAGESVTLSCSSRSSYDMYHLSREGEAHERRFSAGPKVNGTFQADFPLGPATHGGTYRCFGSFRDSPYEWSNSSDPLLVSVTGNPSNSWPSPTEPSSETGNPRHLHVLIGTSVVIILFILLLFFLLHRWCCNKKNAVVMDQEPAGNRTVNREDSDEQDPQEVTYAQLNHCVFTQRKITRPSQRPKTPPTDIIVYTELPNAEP

For the molecule “GST-SHP-1.SH2(C) fusion protein (from UniProt P29351 107-217)”, in experiment [1], the Kd (commonly a measure of binding affinity in units of concentration) is 137 nM, the koff (usually the first-order rate constant of dissociation) came to 0.0007 s⁻¹ and the kon (commonly the rate constant with which the complex forms) is 5000 M⁻¹ s⁻¹. In addition, in experiment [2], the Kd is 545 nM, the koff is 0.0003 s⁻¹ and the kon turned out to be 600 M⁻¹ s⁻¹.
Take `CC[C@H](C)[C@H](NC(=O)[C@@H](NC(=O)CNC(=O)[C@H](CCC(N)=O)NC(=O)[C@H](CC(N)=O)NC(=O)[C@H](CC(=O)O)NC(=O)[C@H](CCSC)NC(=O)CCCC[C@@H]1SC[C@@H]2NC(=O)N[C@@H]21)C(C)C)C(=O)N[C@@H](Cc1ccc(OP(=O)(O)O)cc1)C(=O)N[C@@H](CO)C(=O)N[C@@H](CC(=O)O)C(=O)N[C@@H](CC(C)C)C(=O)N[C@@H](CC(N)=O)C(=O)N[C@@H](CC(C)C)C(=O)O` [NKG2-A N-terminal ITIM, MDNQGVIY8 SDLNL] (HELM PEPTIDE1{[O=C1N[C@H]2[C@H](CS[C@H]2CCCCC(=O)[*:2])N1].M.D.N.Q.G.V.I.[O=C([C@H](Cc1ccc(OP(=O)(O)O)cc1)N[*:1])[*:2]].S.D.L.N.L}$$$$V2.0): the values for the koff on GST-SHP-1.SH2(N + C) and at GST-SHP-2.SH2(N + C) were 0.00189 s⁻¹ and 0.00142 s⁻¹, respectively. The kon on GST-SHP-1.SH2(N + C) is 390000 M⁻¹ s⁻¹; on GST-SHP-2.SH2(N + C) it was 1.03e+06 M⁻¹ s⁻¹. Moreover, the dissociation constant (Kd) at GST-SHP-1.SH2(N + C) (setting [5]) is 4.8 nM; at GST-SHP-2.SH2(N + C) (setting [5]), 1.38 nM.
In the case of “GST-SHP-1.SH2(N) fusion protein (from UniProt P29351 1-106)”, in experiment [1], the dissociation constant (Kd) is 423 nM, the off-rate constant (koff) was 0.042 s⁻¹ and the kon stood at 100000 M⁻¹ s⁻¹. Also, in experiment [2], the Kd amounted to 3160 nM, the koff came out at 0.025 s⁻¹ and the association rate constant (kon) is 8000 M⁻¹ s⁻¹.
On to `CC[C@H](C)[C@H](NC(=O)CCCC[C@@H]1SC[C@@H]2NC(=O)N[C@@H]21)C(=O)N[C@@H](CC(C)C)C(=O)N[C@@H](C)C(=O)N[C@H](C(=O)N[C@@H](CCC(=O)O)C(=O)N[C@@H](CCC(N)=O)C(=O)N[C@@H](CCC(=O)O)C(=O)N[C@H](C(=O)N[C@H](C(=O)N[C@@H](Cc1ccc(OP(=O)(O)O)cc1)C(=O)N[C@@H](C)C(=O)N[C@@H](CCC(=O)O)C(=O)N[C@@H](CC(C)C)C(=O)N[C@@H](CC(N)=O)C(=O)N[C@@H](CC(C)C)C(=O)O)[C@@H](C)O)[C@@H](C)CC)[C@@H](C)O` [NKG2-A C-terminal ITIM, ILATEQEIT40 AELNL] (HELM PEPTIDE1{[O=C1N[C@H]2[C@H](CS[C@H]2CCCCC(=O)[*:2])N1].I.L.A.T.E.Q.E.I.T.[O=C([C@H](Cc1ccc(OP(=O)(O)O)cc1)N[*:1])[*:2]].A.E.L.N.L}$$$$V2.0; N-terminus and C-terminus assumed), for which, on GST-SHP-1.SH2(N + C), the off-rate constant (koff) came to 0.00117 s⁻¹ and the kon was 410000 M⁻¹ s⁻¹. Also, at GST-SHP-2.SH2(N + C), the dissociation rate constant (koff) was determined as 0.00132 s⁻¹ and the on-rate (kon) worked out at 840000 M⁻¹ s⁻¹.
In experiment [3], GL183 F(ab')2 came in with an inhibition of CD25/CD3 zeta-induced serotonin release, RTIIBp58 B clone (GL183 1 µg/ml, anti-hCD25 3 µg/ml) of 39.3%; an inhibition of CD25/CD3 zeta-induced serotonin release, clone with unusually high CD25/CD3 zeta (GL183 F(ab')2 1 µg/ml) of 14.1%; an inhibition of FcεRI-induced serotonin release, first RTIIBp58 clone (GL183 1 µg/ml, IgE 10^-3 dilution, GAM) of 72.8%; an inhibition of FcεRI-induced serotonin release, second RTIIBp58 clone (GL183 1 µg/ml, IgE 10^-3 dilution, GAM) of 55.8%.
As for Biotin-MSEQEVT[pY]SMVRF (also called Ly-19A) [phosphorylated Ly-49A ITIM peptide], the binding result in experiment [4] was “no binding”.

Values taken from patent US20040038894A1, “Compounds for modulating cell negative regulations and biological applications thereof” (INSTITUT NATIONAL DE LA SANTE ET DE LA RECHERCHE MEDICALE …, priority 1996, published 2004).
